Test [1] has as its target T1, recombinant human IL-8, (ser-IL-8)72 (human, UniProt P10145 28-99).
T1 construct: mature; also called human wild type IL-8; HuIL-8
T1 sequence (looked up): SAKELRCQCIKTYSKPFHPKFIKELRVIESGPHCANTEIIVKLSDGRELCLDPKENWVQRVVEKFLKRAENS
In words: 125I-IL-8 binding to human neutrophils, competition.

In test [2] the target is T1, recombinant human IL-8, (ser-IL-8)72. As to the kind of experiment: 125I-IL-8 binding to human neutrophils, competition; against the chimeric F(ab).
Test [3] shares this target. In words: 125I-IL-8 binding to human neutrophils, competition. The source holds these as a separate data set.
Test [4] shares this target. In words: 125I-IL-8 binding to human neutrophils, competition; against F(ab)-1.
Test [5] has the same target. As to the kind of experiment: cell-based or functional assay.
The next test addresses T2, PF4 (UniProt P02776 32-101).
T2 construct: also called platelet factor 4
T2 sequence (looked up): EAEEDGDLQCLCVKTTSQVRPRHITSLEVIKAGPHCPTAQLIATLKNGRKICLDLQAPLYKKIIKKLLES
As to the kind of experiment: cross reactivity test.

In another test the target is T3, β-TG (UniProt P02775 48-128).
T3 construct: also called b-TG
T3 sequence (looked up): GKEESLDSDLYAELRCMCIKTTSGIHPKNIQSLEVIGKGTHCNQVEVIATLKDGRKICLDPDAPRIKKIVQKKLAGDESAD
As to the kind of experiment: cross reactivity test.

From patent US7122636 come the findings set out here.

Where two headings read alike, the source gives them in different places.

B1: humanized 6G425 F(ab)-1 (Fab, V domains shown)
VH: EVQLVESGGGLVQPGGSLRLSCAASGYSFSSHYMHWVRQAPGKGLEWVGYIDPSNGETTYNQKFKGRFTISRDNSKNTLYLQMNSLRAEDTAVYYCAARGDYRYNGDWFFDVWGQGT
VL: DIQMTQSPSSLSASVGDRVTITCRSSQSLVHGIGNTYLHWYQQKPGKAPKLLIYYKVSNRFSGVPSRFSGSGSGTDFTLTISSLQPEDFATYYCSQSTHVPLTFGQGTKVEIKR
notes: Fab with human kappa I and human IgG1 CH1 constant domains; also called version 1; V1
Regarding B1, the values for the IC50 in test [1] and in test [3] were 40 nM and 63 nM, respectively. The “fold reduction in binding affinity” value in test [2] is 5.5 fold.

B2: humanized 6G425 F(ab)-3 (Fab, V domains shown)
VH: EVQLVESGGGLVQPGGSLRLSCAASGYSFSSHYMHWVRQAPGKGLEWVGYIDPSNGETTYNQKFKGRFTISVDNSKNTLYLQMNSLRAEDTAVYYCAARGDYRYNGDWFFDVWGQGT
VL: DIQMTQSPSSLSASVGDRVTITCRSSQSLVHGIGNTYLHWYQQKPGKAPKLLIYYKVSNRFSGVPSRFSGSGSGTDFTLTISSLQPEDFATYYCSQSTHVPLTFGQGTKVEIKR
notes: template F(ab)-1; also called version 3
As for B2, the half-maximal inhibitory concentration (IC50) – broadly, the point on the concentration scale where inhibition reaches its midpoint – in test [3] came to 79.8 nM. For the same molecule, in test [4], the “fold decrease in IL-8 binding” value was less than 2 fold.

B3: humanized 6G425 F(ab)-2 (Fab, V domains shown)
VH: EVQLVESGGGLVQPGGSLRLSCAASGYSFSSHYMHWVRQAPGKGLEWVGYIDPSNGETTYNQKFKGRATISRDNSKNTLYLQMNSLRAEDTAVYYCAARGDYRYNGDWFFDVWGQGT
VL: DIQMTQSPSSLSASVGDRVTITCRSSQSLVHGIGNTYLHWYQQKPGKAPKLLIYYKVSNRFSGVPSRFSGSGSGTDFTLTISSLQPEDFATYYCSQSTHVPLTFGQGTKVEIKR
notes: template F(ab)-1; also called version 2
Take B3: in test [3], the IC50 worked out at 106 nM. Also, in test [4], the “fold decrease in IL-8 binding” value is less than 2 fold.

B4: 6G4V11N35A Fab (Fab, V domains shown)
VH: EVQLVQSGGGLVQPGGSLRLSCAASGYSFSSHYMHWVRQAPGKGLEWVGYIDPSNGETTYNQKFKGRFTLSRDNSKNTAYLQMNSLRAEDTAVYYCARGDYRYNGDWFFDVWGQGTLVTVSS
VL: DIQMTQSPSSLSASVGDRVTITCRSSQSLVHGIGATYLHWYQQKPGKAPKLLIYKVSNRFSGVPSRFSGSGSGTDFTLTISSLQPEDFATYYCSQSTHVPLTFGQGTKVEIKR
On to B4, for which the “IC50, neutrophil chemotaxis” value in test [5] is 2.7 nM.

B5: anti-IL-8 monoclonal antibody 5.12.14 (antibody, mouse IgG2a, V domains shown)
VH: EVQLVESGGGLVPPGGSLKLSCAASGFIFSSYGMSWVRQTPGKSLELVATINNNGDSTYYPDSVKGRFTISRDNAKNTLYLQMSSLKSEDTAMFYCARALISSATWFGYWGQGTLVTVSA
VL: DIVMTQSQKFMSTSVGDRVSVTCKASQNVGTNVAWYQQKPGQSPKALIYSSSYRYSGVPDRFTGSGSGTDFTLTISHVQSEDLADYFCQQYNIYPLTFGPGTKLELKR
notes: mouse IgG2a from hybridoma ATCC HB 11553
Consider B5, for which the binding result with PF4 and with β-TG was “no binding” each time.
